Results taken from paper PMC9482650, “Quantitative fragmentomics allow affinity mapping of interactomes” (Nature Communications, 2022).

T1: GRIP1_3, Q9Y3R0
T1 sequence (Q9Y3R0 247-346, limits assumed, looked up): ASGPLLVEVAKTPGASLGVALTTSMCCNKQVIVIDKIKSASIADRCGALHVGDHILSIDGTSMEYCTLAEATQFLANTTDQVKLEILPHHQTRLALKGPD

T2: PDZRN3_1, Q9UPQ7
T2 sequence (Q9UPQ7 244-349, limits assumed, looked up): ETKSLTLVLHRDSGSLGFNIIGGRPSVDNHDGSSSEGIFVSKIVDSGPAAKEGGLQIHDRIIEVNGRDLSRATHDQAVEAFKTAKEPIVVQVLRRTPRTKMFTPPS

T3: RAPGEF6, Q8TEU7
T3 sequence (Q8TEU7 525-625, limits assumed, looked up): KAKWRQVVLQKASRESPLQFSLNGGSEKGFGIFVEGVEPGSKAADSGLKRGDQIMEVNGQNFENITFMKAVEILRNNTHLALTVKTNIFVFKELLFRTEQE

T4: GRIP1_2, Q9Y3R0
T4 sequence (Q9Y3R0 145-248, limits assumed, looked up): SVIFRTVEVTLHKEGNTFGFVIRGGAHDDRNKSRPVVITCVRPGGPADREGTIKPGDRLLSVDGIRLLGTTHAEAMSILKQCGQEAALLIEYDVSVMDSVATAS

T5: DVL3, Q92997
T5 sequence (Q92997 244-331, limits assumed, looked up): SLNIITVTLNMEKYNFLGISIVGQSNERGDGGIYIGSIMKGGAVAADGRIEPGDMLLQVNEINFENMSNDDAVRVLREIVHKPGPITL

T6: DFNB31_3, Q9P202
T6 sequence (Q9P202 811-907, limits assumed, looked up): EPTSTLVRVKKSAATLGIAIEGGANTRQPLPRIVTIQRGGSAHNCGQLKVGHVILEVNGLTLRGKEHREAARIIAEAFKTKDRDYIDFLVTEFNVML

T7: RHPN1, Q8TCX5
T7 sequence (Q8TCX5 508-602, limits assumed, looked up): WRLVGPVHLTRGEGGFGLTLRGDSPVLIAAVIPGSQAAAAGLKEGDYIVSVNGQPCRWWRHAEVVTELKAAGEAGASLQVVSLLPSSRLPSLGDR

T8: LIN7A, O14910
T8 sequence (O14910 103-200, limits assumed, looked up): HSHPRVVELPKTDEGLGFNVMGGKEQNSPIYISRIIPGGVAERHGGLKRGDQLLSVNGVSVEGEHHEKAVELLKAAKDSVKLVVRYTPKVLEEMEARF

T9: RADIL, Q96JH8
T9 sequence (Q96JH8 971-1071, limits assumed, looked up): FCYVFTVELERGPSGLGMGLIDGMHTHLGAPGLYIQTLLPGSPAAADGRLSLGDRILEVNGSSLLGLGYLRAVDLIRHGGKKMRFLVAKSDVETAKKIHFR

T10: GRIP1_5, Q9Y3R0
T10 sequence (Q9Y3R0 568-668, limits assumed, looked up): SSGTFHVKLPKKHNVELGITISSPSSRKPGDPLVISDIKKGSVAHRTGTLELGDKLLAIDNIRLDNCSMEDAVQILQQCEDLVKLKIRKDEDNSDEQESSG


Assays:
Experiment in all cases: holdup assay
Set-up in all cases: key: below the threshold = too weak to quantify, mostly under pKd 3.1 to 4
Conditions in all cases: plain residues with an end cap or a label only (N-terminal biotin on a linker: ado-ado)
[1] = target: Inadl_10, Q8NI35
Inadl_10, Q8NI35, sequence (Q8NI35 1673-1763): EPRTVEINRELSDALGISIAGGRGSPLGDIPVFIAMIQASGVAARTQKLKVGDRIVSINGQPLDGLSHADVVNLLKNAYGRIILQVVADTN

[2] = target: GIPC2, Q8TF65
GIPC2, Q8TF65, sequence (Q8TF65 112-203): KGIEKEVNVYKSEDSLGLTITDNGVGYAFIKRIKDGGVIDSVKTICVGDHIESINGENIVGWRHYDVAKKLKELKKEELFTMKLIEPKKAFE

[3] = target: T1, GRIP1_3, Q9Y3R0
[4] = target: HTRA1, Q92743
HTRA1, Q92743, sequence (Q92743 360-477): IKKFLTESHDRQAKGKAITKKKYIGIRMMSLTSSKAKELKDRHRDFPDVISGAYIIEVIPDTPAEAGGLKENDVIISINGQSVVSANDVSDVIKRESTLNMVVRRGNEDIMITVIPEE

[5] = target: T2, PDZRN3_1, Q9UPQ7
[6] = target: T3, RAPGEF6, Q8TEU7
[7] = target: SCRIB_1, Q14160
SCRIB_1, Q14160, sequence (Q14160 718-814): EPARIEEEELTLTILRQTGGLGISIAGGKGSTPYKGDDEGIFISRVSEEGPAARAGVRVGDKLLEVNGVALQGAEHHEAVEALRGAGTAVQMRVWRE

[8] = target: DLG4_3, P78352
DLG4_3, P78352, sequence (P78352 306-403): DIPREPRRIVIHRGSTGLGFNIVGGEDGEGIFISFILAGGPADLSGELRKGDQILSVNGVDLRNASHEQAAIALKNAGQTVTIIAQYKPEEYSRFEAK

[9] = target: PDZRN4_1, Q6ZMN7
PDZRN4_1, Q6ZMN7, sequence (Q6ZMN7 213-318): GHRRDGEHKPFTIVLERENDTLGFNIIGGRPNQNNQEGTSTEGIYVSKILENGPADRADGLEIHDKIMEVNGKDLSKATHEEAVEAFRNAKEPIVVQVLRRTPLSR

[10] = target: NHERF4_4, Q86UT5
NHERF4_4, Q86UT5, sequence (Q86UT5 464-550): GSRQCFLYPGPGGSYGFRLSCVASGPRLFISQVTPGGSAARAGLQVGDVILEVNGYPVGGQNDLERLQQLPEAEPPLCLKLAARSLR

[11] = target: NHERF4_2, Q86UT5
NHERF4_2, Q86UT5, sequence (Q86UT5 220-308): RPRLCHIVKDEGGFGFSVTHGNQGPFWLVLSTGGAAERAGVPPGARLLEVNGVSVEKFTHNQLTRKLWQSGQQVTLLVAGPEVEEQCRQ

[12] = target: T4, GRIP1_2, Q9Y3R0
[13] = target: MAST2, Q6P0Q8
MAST2, Q6P0Q8, sequence (Q6P0Q8 1099-1202): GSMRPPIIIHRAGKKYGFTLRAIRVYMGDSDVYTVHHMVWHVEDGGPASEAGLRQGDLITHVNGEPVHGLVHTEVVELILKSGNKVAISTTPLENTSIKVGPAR

[14] = target: T5, DVL3, Q92997
[15] = target: T6, DFNB31_3, Q9P202
[16] = target: LNX1_3, Q8TBB1
LNX1_3, Q8TBB1, sequence (Q8TBB1 500-596): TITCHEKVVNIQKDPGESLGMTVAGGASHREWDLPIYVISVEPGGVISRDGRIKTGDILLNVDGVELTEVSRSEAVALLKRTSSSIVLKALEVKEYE

[17] = target: GORASP2, Q9H8Y8
[18] = target: LNX1_1, Q8TBB1
LNX1_1, Q8TBB1, sequence (Q8TBB1 261-371): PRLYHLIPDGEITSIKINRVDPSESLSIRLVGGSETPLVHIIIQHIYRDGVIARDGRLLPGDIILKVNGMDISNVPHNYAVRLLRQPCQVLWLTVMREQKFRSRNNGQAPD

[19] = target: T7, RHPN1, Q8TCX5
[20] = target: PDLIM1, O00151
PDLIM1, O00151, sequence (O00151 1-87): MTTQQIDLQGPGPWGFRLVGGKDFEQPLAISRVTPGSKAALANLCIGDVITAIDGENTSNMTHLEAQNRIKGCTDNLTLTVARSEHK

[21] = target: T8, LIN7A, O14910
[22] = target: T9, RADIL, Q96JH8
[23] = target: TJP2_1, Q9UDY2
TJP2_1, Q9UDY2, sequence (Q9UDY2 24-128): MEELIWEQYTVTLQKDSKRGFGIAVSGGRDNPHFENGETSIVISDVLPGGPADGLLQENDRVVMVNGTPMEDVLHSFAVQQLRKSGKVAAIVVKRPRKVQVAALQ

[24] = target: T10, GRIP1_5, Q9Y3R0
[25] = target: GORASP1, Q9BQQ3
GORASP1, Q9BQQ3, sequence (Q9BQQ3 1-208): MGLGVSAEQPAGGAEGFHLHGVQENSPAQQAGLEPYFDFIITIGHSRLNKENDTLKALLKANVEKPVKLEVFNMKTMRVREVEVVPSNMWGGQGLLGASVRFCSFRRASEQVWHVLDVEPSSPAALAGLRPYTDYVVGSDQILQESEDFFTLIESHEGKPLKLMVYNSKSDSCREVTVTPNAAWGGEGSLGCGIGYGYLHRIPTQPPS

[26] = target: DLG4_2, P78352
DLG4_2, P78352, sequence (P78352 155-259): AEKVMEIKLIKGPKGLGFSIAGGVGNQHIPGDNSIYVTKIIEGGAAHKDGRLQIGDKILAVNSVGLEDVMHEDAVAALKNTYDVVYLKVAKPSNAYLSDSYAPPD

[27] = target: MAGI1_1, Q96QZ7
MAGI1_1, Q96QZ7, sequence (Q96QZ7 1-106): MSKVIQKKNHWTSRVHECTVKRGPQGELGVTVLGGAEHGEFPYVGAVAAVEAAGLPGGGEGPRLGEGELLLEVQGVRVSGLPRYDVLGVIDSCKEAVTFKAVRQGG

Row | Binder | pKd [1] | pKd [2] | pKd [3] | pKd [4] | pKd [5] | pKd [6] | pKd [7] | pKd [8] | pKd [9] | pKd [10] | pKd [11] | pKd [12] | pKd [13] | pKd [14] | pKd [15] | pKd [16] | pKd [17] | pKd [18] | pKd [19] | pKd [20] | further results
1 | PEYLGLDVPV [ERBB2, P04626] | below the threshold | below the threshold | below the threshold | 3.59 | 3.48 | below the threshold | below the threshold | below the threshold | 3.52 | below the threshold | below the threshold | below the threshold | 4.21 | below the threshold | below the threshold | below the threshold | below the threshold | 3.58 | below the threshold | below the threshold | pKd [21]: below the threshold; pKd [22]: below the threshold; pKd [23]: below the threshold; pKd [24]: below the threshold; pKd [25]: below the threshold; pKd [26]: 3.48; pKd [27]: below the threshold
2 | HLRARKSEWV [GJD4, Q96KN9] | below the threshold | below the threshold | below the threshold | 4.38 | below the threshold | 3.5 | below the threshold | below the threshold | below the threshold | below the threshold | below the threshold | below the threshold | below the threshold | 3.79 | below the threshold | below the threshold | 5.57 | below the threshold | below the threshold | below the threshold | pKd [21]: below the threshold; pKd [22]: 4.85; pKd [23]: 6.04; pKd [24]: below the threshold; pKd [25]: 5; pKd [26]: 4.11; pKd [27]: below the threshold
3 | TSQESEDTYL [TBC1D10A, Q9BXI6] | below the threshold | below the threshold | below the threshold | 4.7 | 3.48 | below the threshold | 3.99 | below the threshold | 3.8 | below the threshold | below the threshold | below the threshold | 5.41 | below the threshold | 4 | below the threshold | below the threshold | below the threshold | 4.45 | below the threshold | pKd [21]: below the threshold; pKd [22]: below the threshold; pKd [23]: below the threshold; pKd [24]: below the threshold; pKd [25]: below the threshold; pKd [26]: below the threshold; pKd [27]: below the threshold
4 | AKPSRISTVV [IQSEC2, Q5JU85] | below the threshold | below the threshold | below the threshold | 4.5 | below the threshold | below the threshold | 3.58 | 4.18 | below the threshold | below the threshold | below the threshold | below the threshold | 5.11 | below the threshold | below the threshold | below the threshold | 4.47 | 4.34 | below the threshold | below the threshold | pKd [21]: below the threshold; pKd [22]: 4.32; pKd [23]: 4.46; pKd [24]: below the threshold; pKd [25]: 4.11; pKd [26]: 5.31; pKd [27]: below the threshold
